From US20050037963A1

How the values were obtained:
[1] = target: endogenous FAK of NIH 3T3 cells (mouse) (UniProt P34152); assay: cell-based or functional assay
[2] = target: endogenous FIP200 of NIH 3T3 cells (mouse) (UniProt Q9ESK9); assay: cell-based or functional assay
endogenous FIP200 of NIH 3T3 cells (mouse), sequence (Q9ESK9 whole entry): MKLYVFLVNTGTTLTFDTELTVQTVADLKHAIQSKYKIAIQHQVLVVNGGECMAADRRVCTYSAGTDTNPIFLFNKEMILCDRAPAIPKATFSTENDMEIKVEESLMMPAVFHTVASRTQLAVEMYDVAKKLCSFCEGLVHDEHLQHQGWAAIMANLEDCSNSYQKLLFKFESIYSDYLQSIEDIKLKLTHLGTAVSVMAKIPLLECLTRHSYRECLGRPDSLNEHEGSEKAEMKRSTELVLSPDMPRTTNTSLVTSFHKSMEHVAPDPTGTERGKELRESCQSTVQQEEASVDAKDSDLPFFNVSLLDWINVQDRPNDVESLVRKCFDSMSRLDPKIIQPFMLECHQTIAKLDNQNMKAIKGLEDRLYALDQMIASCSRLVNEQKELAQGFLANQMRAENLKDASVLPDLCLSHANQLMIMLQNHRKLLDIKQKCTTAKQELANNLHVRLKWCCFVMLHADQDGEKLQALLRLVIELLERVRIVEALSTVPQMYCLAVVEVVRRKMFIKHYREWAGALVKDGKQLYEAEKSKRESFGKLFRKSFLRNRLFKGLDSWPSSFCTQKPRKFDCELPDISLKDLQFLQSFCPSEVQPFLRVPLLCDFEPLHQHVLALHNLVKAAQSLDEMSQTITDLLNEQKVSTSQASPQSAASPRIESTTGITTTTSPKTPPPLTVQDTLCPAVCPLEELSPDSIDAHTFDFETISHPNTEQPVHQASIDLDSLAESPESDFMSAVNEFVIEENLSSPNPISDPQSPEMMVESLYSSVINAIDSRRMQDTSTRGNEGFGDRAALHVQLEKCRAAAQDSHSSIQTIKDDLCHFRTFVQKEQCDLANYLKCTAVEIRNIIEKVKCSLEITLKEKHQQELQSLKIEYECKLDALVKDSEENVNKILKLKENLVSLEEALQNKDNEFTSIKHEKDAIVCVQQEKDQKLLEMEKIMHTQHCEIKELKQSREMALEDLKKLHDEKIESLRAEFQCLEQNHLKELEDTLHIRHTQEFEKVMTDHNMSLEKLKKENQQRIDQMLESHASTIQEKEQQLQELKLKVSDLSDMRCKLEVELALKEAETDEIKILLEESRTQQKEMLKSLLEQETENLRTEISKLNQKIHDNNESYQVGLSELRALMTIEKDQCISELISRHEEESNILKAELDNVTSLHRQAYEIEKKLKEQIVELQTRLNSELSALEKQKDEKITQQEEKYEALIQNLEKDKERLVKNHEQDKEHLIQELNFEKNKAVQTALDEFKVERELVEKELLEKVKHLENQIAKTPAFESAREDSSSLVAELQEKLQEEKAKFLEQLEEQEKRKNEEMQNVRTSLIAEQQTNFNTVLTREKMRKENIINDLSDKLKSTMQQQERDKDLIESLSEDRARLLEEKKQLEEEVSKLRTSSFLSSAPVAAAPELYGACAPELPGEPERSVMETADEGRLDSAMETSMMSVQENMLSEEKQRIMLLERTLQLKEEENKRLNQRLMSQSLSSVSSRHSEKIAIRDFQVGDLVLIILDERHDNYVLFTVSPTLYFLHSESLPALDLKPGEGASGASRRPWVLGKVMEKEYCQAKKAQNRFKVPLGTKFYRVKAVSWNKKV

endogenous FAK of NIH 3T3 cells (mouse), sequence (P34152 2-1052 limits assumed): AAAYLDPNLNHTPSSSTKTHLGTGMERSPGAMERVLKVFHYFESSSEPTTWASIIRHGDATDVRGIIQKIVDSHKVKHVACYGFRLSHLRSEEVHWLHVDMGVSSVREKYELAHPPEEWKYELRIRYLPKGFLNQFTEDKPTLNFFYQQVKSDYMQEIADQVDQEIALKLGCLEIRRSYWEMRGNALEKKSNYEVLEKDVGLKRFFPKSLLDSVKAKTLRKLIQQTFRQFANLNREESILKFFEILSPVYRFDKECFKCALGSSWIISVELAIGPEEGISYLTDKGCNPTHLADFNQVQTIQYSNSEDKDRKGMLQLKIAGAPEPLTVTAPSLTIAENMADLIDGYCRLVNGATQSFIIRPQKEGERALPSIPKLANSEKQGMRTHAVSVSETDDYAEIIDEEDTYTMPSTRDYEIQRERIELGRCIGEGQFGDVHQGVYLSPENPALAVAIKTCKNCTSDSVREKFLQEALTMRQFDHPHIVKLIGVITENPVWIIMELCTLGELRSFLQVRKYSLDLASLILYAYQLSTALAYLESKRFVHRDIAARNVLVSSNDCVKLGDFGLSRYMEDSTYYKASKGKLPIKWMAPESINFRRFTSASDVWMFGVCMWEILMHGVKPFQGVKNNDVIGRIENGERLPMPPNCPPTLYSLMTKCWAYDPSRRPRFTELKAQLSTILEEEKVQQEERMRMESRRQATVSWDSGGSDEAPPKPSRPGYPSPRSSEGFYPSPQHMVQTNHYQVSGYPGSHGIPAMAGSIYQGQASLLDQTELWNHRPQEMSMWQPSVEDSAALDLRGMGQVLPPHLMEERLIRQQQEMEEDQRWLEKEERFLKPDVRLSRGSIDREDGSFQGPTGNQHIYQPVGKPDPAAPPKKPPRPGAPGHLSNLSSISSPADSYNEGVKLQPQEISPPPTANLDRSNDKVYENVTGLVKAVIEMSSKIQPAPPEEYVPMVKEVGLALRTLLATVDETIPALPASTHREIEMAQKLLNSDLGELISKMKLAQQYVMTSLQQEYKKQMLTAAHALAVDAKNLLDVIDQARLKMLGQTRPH

Substance	inhibition of cell spreading on FN (NIH3T3, β-gal cotransfection) [1]	further results
Flag-tagged NT-FIP (NH2-terminal FIP200, residues 1-638) (from UniProt Q8TDY2 1-638)	50%	–
HA-tagged KD^KR (FAK kinase domain, residues 403-672, with the kinase-defective mutation K454 to R)	–	cells entering S-phase on PLL (BrdU incorporation, NIH3T3) [2]: 30%
HA-tagged full-length FIP200 (pKH3-FIP200, residues 1-1591) (from UniProt Q8TDY2 1-1594)	–	inhibition of cell cycle progression (BrdU incorporation, NIH3T3) [1]: 90%

More lines, main results first:

inhibition of cell spreading on FN (NIH3T3, β-gal cotransfection) [1]	Substance	further results
50%	Flag-tagged MD-FIP (middle domain FIP200, residues 639-1373) (from UniProt Q8TDY2 639-1373)	–
50%	Flag-tagged full-length FIP200 (from UniProt Q8TDY2 1-1594)	–
